In patent publication US20090130105A1 (Biogen, published 2009):

biological target: T1, human IGF-1R(1-903)-Fc (human, UniProt P08069 31-933); assay: biolayer interferometry (Octet), IGF-1R Fc on Protein A sensors, scFv culture supernatant; set-up: unit not given here
T1 construct: also called hIGF-1R-Fc; SDWT; not shown: human IgG1 Fc, C-terminal tag
Source text: Individual transformed colonies were picked into deep-well 96 well dishes and processed for screening as described above. […] For off-rate analyses IGF-1R Fc was immobilized onto the surface of Protein A biosensors. […] ScFvs were allowed to bind to immobilized IGF-1R Fc for 300-seconds. Off-rate was subsequently assayed for 600 seconds.

T1 sequence (P08069 31-933): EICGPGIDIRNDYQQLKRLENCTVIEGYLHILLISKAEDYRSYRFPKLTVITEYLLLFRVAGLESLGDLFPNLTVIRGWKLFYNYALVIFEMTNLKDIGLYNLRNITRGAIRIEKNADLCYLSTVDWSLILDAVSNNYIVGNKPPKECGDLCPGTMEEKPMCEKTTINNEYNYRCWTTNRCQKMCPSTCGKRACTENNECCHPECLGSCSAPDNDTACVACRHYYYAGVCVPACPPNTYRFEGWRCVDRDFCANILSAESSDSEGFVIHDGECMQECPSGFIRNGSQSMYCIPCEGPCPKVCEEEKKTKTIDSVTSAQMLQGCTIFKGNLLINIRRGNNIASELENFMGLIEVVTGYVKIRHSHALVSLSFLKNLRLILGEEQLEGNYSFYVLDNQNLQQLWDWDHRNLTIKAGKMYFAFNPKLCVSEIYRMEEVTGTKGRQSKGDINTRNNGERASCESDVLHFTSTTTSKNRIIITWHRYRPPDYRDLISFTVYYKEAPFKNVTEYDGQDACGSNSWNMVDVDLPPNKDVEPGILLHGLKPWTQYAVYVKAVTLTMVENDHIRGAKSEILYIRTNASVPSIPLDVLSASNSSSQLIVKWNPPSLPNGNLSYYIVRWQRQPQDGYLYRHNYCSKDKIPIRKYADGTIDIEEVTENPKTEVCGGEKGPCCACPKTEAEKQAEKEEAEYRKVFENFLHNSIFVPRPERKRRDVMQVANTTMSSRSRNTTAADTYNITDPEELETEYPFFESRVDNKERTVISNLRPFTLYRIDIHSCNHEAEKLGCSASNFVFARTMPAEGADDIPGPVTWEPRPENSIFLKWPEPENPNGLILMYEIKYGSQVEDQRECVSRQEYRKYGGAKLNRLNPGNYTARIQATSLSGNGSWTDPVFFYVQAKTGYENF

| Kd (1/sec), off-rate as tabulated (XWU092 = 1.00) | Binder |
| --- | --- |
| 0.81 | MJF034, C06 (VL/GS3/VH) scFv with VL A51G (scFv, Kabat positions) scFv: DIQMTQSPLSLSASVGDRVTITCQASRDIRNYLNWYQQKPGKAPKLLIYDGSSLQTGVPSRFGGSGSGTDFSFTIGSLQPEDIATYYCQQFDSLPHTFGQGTKLEIKGGGGSGGGGSGGGGSEVQLLESGGGLVQPGGSLRLSCAASGFTFSIYRMQWVRQAPGKGLEWVSGISPSGGTTWYADSVKGRFTISRDNSKNTLYLQMNSLRAEDTAVYYCARWSGGSGYAFDIWGQGTMVTVSSDDDKSFLEQKLISEEDLNSAVDHHHHHH |
| 0.76 | MJF037, C06 (VL/GS3/VH) scFv with VL S72Y (scFv, Kabat positions) scFv: DIQMTQSPLSLSASVGDRVTITCQASRDIRNYLNWYQQKPGKAPKLLIYDASSLQTGVPSRFGGSGSGTDFYFTIGSLQPEDIATYYCQQFDSLPHTFGQGTKLEIKGGGGSGGGGSGGGGSEVQLLESGGGLVQPGGSLRLSCAASGFTFSIYRMQWVRQAPGKGLEWVSGISPSGGTTWYADSVKGRFTISRDNSKNTLYLQMNSLRAEDTAVYYCARWSGGSGYAFDIWGQGTMVTVSSDDDKSFLEQKLISEEDLNSAVDHHHHHH |
| 1.37 | MJF048, C06 (VL/GS3/VH) scFv with VH R83K (scFv, name in Kabat numbering, Kabat positions) scFv: DIQMTQSPLSLSASVGDRVTITCQASRDIRNYLNWYQQKPGKAPKLLIYDASSLQTGVPSRFGGSGSGTDFSFTIGSLQPEDIATYYCQQFDSLPHTFGQGTKLEIKGGGGSGGGGSGGGGSEVQLLESGGGLVQPGGSLRLSCAASGFTFSIYRMQWVRQAPGKGLEWVSGISPSGGTTWYADSVKGRFTISRDNSKNTLYLQMNSLKAEDTAVYYCARWSGGSGYAFDIWGQGTMVTVSSDDDKSFLEQKLISEEDLNSAVDHHHHHH |
| 0.76 | MJF040, C06 (VL/GS3/VH) scFv with VL I83M (scFv, Kabat positions) scFv: DIQMTQSPLSLSASVGDRVTITCQASRDIRNYLNWYQQKPGKAPKLLIYDASSLQTGVPSRFGGSGSGTDFSFTIGSLQPEDMATYYCQQFDSLPHTFGQGTKLEIKGGGGSGGGGSGGGGSEVQLLESGGGLVQPGGSLRLSCAASGFTFSIYRMQWVRQAPGKGLEWVSGISPSGGTTWYADSVKGRFTISRDNSKNTLYLQMNSLRAEDTAVYYCARWSGGSGYAFDIWGQGTMVTVSSDDDKSFLEQKLISEEDLNSAVDHHHHHH |
| 1.68 | MJF050, C06 (VL/GS3/VH) scFv with VH T110V (scFv, name in Kabat numbering, Kabat positions) scFv: DIQMTQSPLSLSASVGDRVTITCQASRDIRNYLNWYQQKPGKAPKLLIYDASSLQTGVPSRFGGSGSGTDFSFTIGSLQPEDIATYYCQQFDSLPHTFGQGTKLEIKGGGGSGGGGSGGGGSEVQLLESGGGLVQPGGSLRLSCAASGFTFSIYRMQWVRQAPGKGLEWVSGISPSGGTTWYADSVKGRFTISRDNSKNTLYLQMNSLRAEDTAVYYCARWSGGSGYAFDIWGQGTMVVVSSDDDKSFLEQKLISEEDLNSAVDHHHHHH |
| 1.1 | MJF051, C06 (VL/GS3/VH) scFv with VL S77G, I83Q (scFv, Kabat positions) scFv: DIQMTQSPLSLSASVGDRVTITCQASRDIRNYLNWYQQKPGKAPKLLIYDASSLQTGVPSRFGGSGSGTDFSFTIGGLQPEDQATYYCQQFDSLPHTFGQGTKLEIKGGGGSGGGGSGGGGSEVQLLESGGGLVQPGGSLRLSCAASGFTFSIYRMQWVRQAPGKGLEWVSGISPSGGTTWYADSVKGRFTISRDNSKNTLYLQMNSLRAEDTAVYYCARWSGGSGYAFDIWGQGTMVTVSSDDDKSFLEQKLISEEDLNSAVDHHHHHH |
| 0.56 | MJF039, C06 (VL/GS3/VH) scFv with VL T20R, R30N, G63S, S72N (scFv, Kabat positions) scFv: DIQMTQSPLSLSASVGDRVRITCQASRDINNYLNWYQQKPGKAPKLLIYDASSLQTGVPSRFSGSGSGTDFNFTIGSLQPEDIATYYCQQFDSLPHTFGQGTKLEIKGGGGSGGGGSGGGGSEVQLLESGGGLVQPGGSLRLSCAASGFTFSIYRMQWVRQAPGKGLEWVSGISPSGGTTWYADSVKGRFTISRDNSKNTLYLQMNSLRAEDTAVYYCARWSGGSGYAFDIWGQGTMVTVSSDDDKSFLEQKLISEEDLNSAVDHHHHHH |

More lines, now with the values behind:

| Binder | Kd (1/sec), off-rate as tabulated (XWU092 = 1.00) |
| --- | --- |
| MJF038, C06 (VL/GS3/VH) scFv with VL G63S, S72N (scFv, Kabat positions) scFv: DIQMTQSPLSLSASVGDRVTITCQASRDIRNYLNWYQQKPGKAPKLLIYDASSLQTGVPSRFSGSGSGTDFNFTIGSLQPEDIATYYCQQFDSLPHTFGQGTKLEIKGGGGSGGGGSGGGGSEVQLLESGGGLVQPGGSLRLSCAASGFTFSIYRMQWVRQAPGKGLEWVSGISPSGGTTWYADSVKGRFTISRDNSKNTLYLQMNSLRAEDTAVYYCARWSGGSGYAFDIWGQGTMVTVSSDDDKSFLEQKLISEEDLNSAVDHHHHHH | 0.76 |
| MJF035, C06 (VL/GS3/VH) scFv with VL S72N (scFv, Kabat positions) scFv: DIQMTQSPLSLSASVGDRVTITCQASRDIRNYLNWYQQKPGKAPKLLIYDASSLQTGVPSRFGGSGSGTDFNFTIGSLQPEDIATYYCQQFDSLPHTFGQGTKLEIKGGGGSGGGGSGGGGSEVQLLESGGGLVQPGGSLRLSCAASGFTFSIYRMQWVRQAPGKGLEWVSGISPSGGTTWYADSVKGRFTISRDNSKNTLYLQMNSLRAEDTAVYYCARWSGGSGYAFDIWGQGTMVTVSSDDDKSFLEQKLISEEDLNSAVDHHHHHH | 0.54 |
| MJF042, C06 (VL/GS3/VH) scFv with VL S77G, I83G (scFv, Kabat positions) scFv: DIQMTQSPLSLSASVGDRVTITCQASRDIRNYLNWYQQKPGKAPKLLIYDASSLQTGVPSRFGGSGSGTDFSFTIGGLQPEDGATYYCQQFDSLPHTFGQGTKLEIKGGGGSGGGGSGGGGSEVQLLESGGGLVQPGGSLRLSCAASGFTFSIYRMQWVRQAPGKGLEWVSGISPSGGTTWYADSVKGRFTISRDNSKNTLYLQMNSLRAEDTAVYYCARWSGGSGYAFDIWGQGTMVTVSSDDDKSFLEQKLISEEDLNSAVDHHHHHH | 0.55 |
| MJF043, C06 (VL/GS3/VH) scFv with VL I83D (scFv, Kabat positions) scFv: DIQMTQSPLSLSASVGDRVTITCQASRDIRNYLNWYQQKPGKAPKLLIYDASSLQTGVPSRFGGSGSGTDFSFTIGSLQPEDDATYYCQQFDSLPHTFGQGTKLEIKGGGGSGGGGSGGGGSEVQLLESGGGLVQPGGSLRLSCAASGFTFSIYRMQWVRQAPGKGLEWVSGISPSGGTTWYADSVKGRFTISRDNSKNTLYLQMNSLRAEDTAVYYCARWSGGSGYAFDIWGQGTMVTVSSDDDKSFLEQKLISEEDLNSAVDHHHHHH | 1.12 |
| MJF047, C06 (VL/GS3/VH) scFv with VL I83G (scFv, Kabat positions) scFv: DIQMTQSPLSLSASVGDRVTITCQASRDIRNYLNWYQQKPGKAPKLLIYDASSLQTGVPSRFGGSGSGTDFSFTIGSLQPEDGATYYCQQFDSLPHTFGQGTKLEIKGGGGSGGGGSGGGGSEVQLLESGGGLVQPGGSLRLSCAASGFTFSIYRMQWVRQAPGKGLEWVSGISPSGGTTWYADSVKGRFTISRDNSKNTLYLQMNSLRAEDTAVYYCARWSGGSGYAFDIWGQGTMVTVSSDDDKSFLEQKLISEEDLNSAVDHHHHHH | 1.44 |
| MJF049, C06 (VL/GS3/VH) scFv with VH R83T (scFv, name in Kabat numbering, Kabat positions) scFv: DIQMTQSPLSLSASVGDRVTITCQASRDIRNYLNWYQQKPGKAPKLLIYDASSLQTGVPSRFGGSGSGTDFSFTIGSLQPEDIATYYCQQFDSLPHTFGQGTKLEIKGGGGSGGGGSGGGGSEVQLLESGGGLVQPGGSLRLSCAASGFTFSIYRMQWVRQAPGKGLEWVSGISPSGGTTWYADSVKGRFTISRDNSKNTLYLQMNSLTAEDTAVYYCARWSGGSGYAFDIWGQGTMVTVSSDDDKSFLEQKLISEEDLNSAVDHHHHHH | 1.41 |
